These are literature values, as cited in PMC2645924.

For series [1], the target named is Cys165 (UniProt position 166, HPGEVCPAKWK). The experiment in a line: chemical modification. The note with it: Reduced mutant proteins.
Series [2] deals with Cys46 (UniProt position 47, DFTFVCPTELG). The series can be described thus: chemical modification. The note with it: Reduced mutant proteins.
The target of series [3] is Cys32 (UniProt position 33, FWAEWCGPCKM).

Take “AhpC C46S mutant (only C165 remains) (Salmonella typhimurium; C46S)”: the pKa (commonly the pH at which an ionisable group is half protonated) in series [1] was 8.7.

As to “AhpC C165S mutant (only C46 remains) (Salmonella typhimurium; C165S)”, the pKa result in series [2] is “less than 5”.

For Thioredoxin (Escherichia coli), the pKa in series [3] is 6.7 – 7.1.
